From publication PMC11480844

B1: H2-Kb / G2 (parent)
chain 1: GEQVEQRPPHLSVREGDSAVIICTYTDPNSYYFFWYKQEPGAGLQLLMKVFSSTEINEGQGFTVLLNKKDKQLSLNLTAAHPGDSAVYFCAVRTNQGGRALIFGTGTTVSVSP
chain 2: EAAVTQSPRSKVAVTGGKVTLSCHQTNNHDYMYWYRQDTGHGLRLIHYSYVADSTEKGDIPDGYKASRPSQENFSLILELASLSQTAVYFCASSGTDTEVFFGKGTRLTVV
chain 3: not shown
chain 4: IQKTPQIQVYSRHPPENGKPNILNCYVTQFHPPHIEIQMLKNGKKIPKVEMSDMSFSKDWSFYILAHTEFTPTETDTYACRVKHDSMAEPKTVYWDRDM
chain 5: SIINFEKL
B2: H2-Kb / B10 (parent)
chain 1: GQQVQQSPASLVLQEGENAELQCNFSSTATRLQWFYQRPGGSLVSLLSNPSGTKHTGRLTSTTVTKERRGSLHISSSQITDSGTYLCAPGGSNAKLTFGKGTKLSVKS
chain 2: DPKIIQKPKYLVAVTGSEKILICEQYLGHNAMYWYRQSAKKPLEFMFSYSYQKLMDNQTASSRFQPQSSKKNHLDLQITALKPDDSATYFCASSLRGGNNQAPLFGEGTRLSVL
chain 3: not shown
chain 4: B1 chain 4
chain 5: SIINFEKL
B3: H2-Kb / H6 (parent)
chain 1: AQKVTQTQTSISVMEKTTVTMDCVYETQDSSYFLFWYKQTASGEIVFLIRQDSYKKENATVGHYSLNFQKPKSSIGLIITATQIEDSAVYFCAMRDYNQGKLIFGQGTKLSIKP
chain 2: EAAVTQSPRSKVAVTGGKVTLSCHQTNNHDYMYWYRQDTGHGLRLIHYSYVADSTEKGDIPDGYKASRPSQENFSLILELASLSQTAVYFCASSGTAANSDYTFGSGTRLLVI
chain 3: not shown
chain 4: B1 chain 4
chain 5: SIINFEKL

Variants of: B1
Experiment: % of reporter cells activated (NFAT-GFP), raw
Settings: with G2; scale: % of reporter cells activated
Also: test concentration or dose not given here.

Ratio to parent of substitutions, site by site:
chain 5 S1: H 1.26, L 1.73, I 1.45, N 1.55, V 0.976, M 1.6, F 1.63, P 1.42, C 1.31, G 1.47, R 1.02, K 1.58, Y 1.26, D 1.62, W 1.34, A 1.7, T 1.07, E 1.54, Q 1.22
chain 5 N4: G 0.976, H 1.38, D 1.4, V 1.26, S 1.5, I 1.13, W 2.17, C 1.02, Y 0.936, A 1.13, T 0.904, L 1.54, E 0.928, M 1.09, K 1.74, F 1.32, R 0.952, P 1.34, Q 1.18
chain 5 F5: V 1.42, W 1.15, S 0.88, T 1.06, Y 1.62, G 1.23, C 1.4, E 1.34, D 1.77, Q 1.24, K 1.36, N 0.984, M 1.31, L 1.46, P 1.42, H 1.51, R 0.864, A 1.38, I 1.06
chain 5 E6: M 1.15, K 1.3, P 1.53, R 1.34, A 1.9, N 1.39, F 1.36, C 1.18, G 1.29, Q 1.41, H 1.36, I 1.02, S 1.01, Y 1.71, W 1.31, D 1.28, T 1.73, L 1.08, V 1.7
chain 5 I2: F 1.32, M 0.88, P 1.65, Q 1.13, R 1.01, S 1.32, E 1.41, A 1.66, H 1.31, W 1.18, V 1.18, C 1.06, D 1.58, N 1.11, K 1.16, G 0.928, T 1.56, Y 1.54, L 1.25
chain 5 L8: W 0.768, S 1.15, A 1.06, M 2.01, N 1.54, C 1.06, Q 1.05, F 1.09, T 0.944, H 1.78, E 0.696, P 1.24, Y 0.744, R 1.45, G 1.54, I 1.04, K 1.4, V 1.32, D 0.904
chain 5 I3: F 1.19, Q 1.03, G 1.39, E 1.55, R 0.8, Y 0.904, A 1.42, P 1.44, K 1.5, T 0.992, D 1.26, S 0.936, W 1.3, N 1.53, C 1.38, M 1.88, H 1.18, L 1.34, V 0.968
chain 5 K7: I 1.83, T 1.27, Y 1.22, Q 1.12, H 1.63, V 1.13, G 0.936, M 1.34, F 1.94, W 1.34, P 1.46, E 1.46, S 0.824, D 1.29, N 1.18, R 0.664, A 1.58, C 1.88, L 2.32

Variants of: B2
Experiment: % of reporter cells activated (NFAT-GFP), raw
Settings: with B10; scale: % of reporter cells activated

Ratio to parent, by site and new letter:
chain 5 K7: G 0.898, C 1.34, D 1.09, I 2.29, M 2.2, P 1.37, A 1.64, L 1.85, Q 0.636, N 1.54, H 2.02, R 1.17, E 1.37, F 1.64
chain 5 I3: N 0.966, W 0.831, F 0.897, L 1.93, G 1.61, Q 0.61, C 0.746, R 0.903, V 1.12, K 1.47, S 1.22, E 1.13, Y 1.97, D 0.864, M 1.2, T 1.44, A 0.702, P 0.949, H 1.53
chain 5 F5: L 2.41, H 1.27, W 1.03, A 1.31, V 1.02, T 0.847, P 1.86, R 1.1, Y 1.41, C 1.1, S 1.46, I 1.83, E 2.36, D 4.25, M 1.49, K 1.49, N 2.03, G 1.63, Q 1.64
chain 5 E6: Y 1.57, K 1.31, A 0.973, M 1.2, I 0.763, S 1.65, F 1.74, D 1.26, R 1.9, N 0.915, G 1.53, C 1.72, H 0.924, L 1.28, T 1.75, P 0.983, W 1.09, Q 1.31, V 1.44
chain 5 I2: T 1.49, N 0.875, D 1.32, A 1.03, L 0.898, R 1.05, V 2.51, Y 1.22, C 2.08, Q 1.43, S 1.22, K 1.71, F 1.5, E 1.27, G 0.624, M 0.729, H 0.888, P 1, W 0.82

Variants of: B3
Experiment: % of reporter cells activated (NFAT-GFP), raw
Settings: with H6; scale: % of reporter cells activated

Ratio to parent of substitutions, site by site:
chain 5 K7: Y 0.162, G 0.072, A 0.097, E 0.122, Q 0.102, T 0.111, W 0.129, D 0.0822, L 0.112, V 0.261, N 0.0979, H 0.809, C 0.125, I 0.231, R 1.36, F 0.111, P 0.11, M 0.188, S 0.0877
chain 5 L8: N 0.433, M 0.538, S 0.129, E 0.214, T 0.521, I 0.888, W 0.248, A 0.199, H 0.825, K 0.13, Y 0.729, D 0.209, F 0.32, Q 0.131, C 0.28, G 0.36, P 0.26, V 0.537, R 0.406
chain 5 N4: Q 0.117, Y 0.358, G 0.445, H 0.91, D 0.132, V 0.0988, I 0.116, A 0.202, T 0.143, L 0.146, F 0.335, E 0.2, M 0.111, W 0.672, C 0.206, K 0.126, R 0.102, S 0.295, P 0.519
chain 5 S1: M 0.536, V 0.294, P 0.141, I 0.338, D 1.53, E 0.709, F 0.276, A 0.556, R 0.333, C 0.188, W 0.292, G 0.517, K 0.384, H 0.446, T 0.524, Y 0.424, Q 0.602, L 0.355, N 0.416
chain 5 I3: Y 0.236, H 0.61, K 0.236, W 0.281, E 1.19, P 1.18, V 1.57, M 1.62, F 0.342, G 0.962, S 0.872, Q 1.11, T 0.955, L 1.02, R 0.295, N 1.09
